According to patent CN115850461A (INST MICROBIOLOGY CAS, dated 2023):

Assays:
SARS-CoV RBD蛋白 = SARS-CoV RBD蛋白 (SARS-CoV, UniProt P59594 306-527); experiment: SPR, Biacore 8K; 74 captured on protein A chip, RBD as analyte
[1] = molecular target: T1, SARS-CoV-2 Prototype株(PT)RBD蛋白 (SARS-CoV-2 (Prototype), UniProt P0DTC2 319-541); experiment: as above
T1 construct: domain: RBD

WIV1 假病毒 S蛋白 = WIV1 假病毒 S蛋白 (sarbecovirus WIV1); experiment: cell-based or functional assay
RaTG13 假病毒 S蛋白 = RaTG13 假病毒 S蛋白 (sarbecovirus RaTG13); experiment: cell-based or functional assay
[2] = molecular target: SARS-CoV-2 Prototype(PT)假病毒 S蛋白 (SARS-CoV-2 (Prototype), UniProt P0DTC2 14-1273); experiment: cell-based or functional assay
GD/1/2019 假病毒 S蛋白 = GD/1/2019 假病毒 S蛋白 (sarbecovirus GD/1/2019); experiment: cell-based or functional assay
SARS-CoV 假病毒 S蛋白 = SARS-CoV 假病毒 S蛋白 (SARS-CoV, UniProt P59594 14-1255); experiment: cell-based or functional assay

B1: 沙贝病毒广谱人源中和抗体74 (antibody, V domains shown)
VH: QVQLVQSGAQLKKPGESLKISCKGSGYNFSRYWIAWVRHMPGKGLEVMGIIYPDDSDTRYSPSVRGQVTISADKSTSIVYLQWSSLKASDTGIYYCARFGAGMTGMPRYFDTTRWFDPWGQGTQVTVSS
VL: QSVLTQPPSVSGAPGQRVTISCLGGSSNIGAGYDVHWYQHLPGAAPKLLISGNSNRPSGVPARFSGSKSGTSASLAITGLQAEDEADYYCQSYDNDLSQVFGGGTKLTVLG
SARS-CoV RBD蛋白
  Kd: < 0.00606 nM
  koff: 6.47e-06 s⁻¹
  kon: 1.65e+06 M⁻¹ s⁻¹
[1]
  Kd: < 0.0156 nM
  koff: 9.52e-08 s⁻¹
  kon: 640000 M⁻¹ s⁻¹
WIV1 假病毒 S蛋白
  IC50, 假病毒中和: 0.14 µg/mL
RaTG13 假病毒 S蛋白
  IC50, 假病毒中和: > 100 µg/mL
[2]
  IC50, 假病毒中和: 0.95 µg/mL
GD/1/2019 假病毒 S蛋白
  IC50, 假病毒中和: 0.0028 µg/mL
SARS-CoV 假病毒 S蛋白
  IC50, 假病毒中和: 0.041 µg/mL
